Series [1] deals with T1, F-S-R-AMC fluorogenic substrate.
T1 chain: FSR

Series [2] addresses T2, V-P-R-AMC fluorogenic substrate.
T2 chain: VPR

B1: recombinant hK13 protein (active form of human kallikrein 13, produced in Pichia pastoris) (protein)
chain: VLNTNGTSGFLPGGYTCFPHSQPWQAALLVQGRLLCGGVLVHPKWVLTAAHCLKEGLKVYLGKHALGRVEAGEQVREVVHSIPHPEYRRSPTHLNHDHDIMLLELQSPVQLTGYIQTLPLSHNNRLTPGTTCRVSGWGTTTSPQVNYPKTLQCANIQLRSDEECRQVYPGKITDNMLCAGTKEGGKDSCEGDSGGPLVCNRTLYGIVSWGDFPCGQPDRPGVYTRVSRYVLWIRETIRKYETQQQKWLKGPQ
For B1, in series [1], the “fluorescence of the substrate FSR-AMC, 10 ng of hK13 (substrate alone 1.1 arbitrary units)” value was “to 1.9 arbitrary units (10 ng of hK13)”; the “fluorescence of the substrate FSR-AMC, 100 ng of hK13 (substrate alone 1.1 arbitrary units)” value is listed as “to 6.9 arbitrary units (100 ng of hK13)”; the “fluorescence of the substrate FSR-AMC, 160 ng of hK13 (substrate alone 1.1 arbitrary units)” value is on record as “to 14.5 arbitrary units (160 ng of hK13)”. Moreover, in series [2], the “fluorescence of the substrate VPR-AMC, 10 ng of enzyme (substrate alone 0.5 arbitrary units)” value is reported as “to 1.9 arbitrary units (10 ng of enzyme)”; the “fluorescence of the substrate VPR-AMC, 100 ng of enzyme (substrate alone 0.5 arbitrary units)” value was “to 13.9 arbitrary units (100 ng of enzyme)”; the “fluorescence of the substrate VPR-AMC, 160 ng of enzyme (substrate alone 0.5 arbitrary units)” value is reported as “to 35.5 arbitrary units (160 ng of enzyme)”.

(Values after patent US20060159616.)
